According to patent US20020103152:

System: Sleeping Beauty transposase (SB) (synthetic construct (salmonid Tc1-like, reconstructed)?)
Test: cell_activity
Conditions: mouse liver, pRSV-βgeo without terminal repeats; 2-4% with repeats

phAAT / pRSV-βgeo plasmids lacking terminal repeats
activity (% of hepatocytes): < 0.01
